This is an account of results in patent US20090318341A1.

Experiment in all cases: cell-based or functional assay
Test [1] addresses human Kv1.3 channel (human) (UniProt P22001).
Test [2] concerns the target human Kv1.3 voltage-gated potassium channel (human) (UniProt P22001).
Test [3] addresses human Kv1.1 channel (human) (UniProt Q09470).
Test [4] addresses human Kv1.3 channel (human) (UniProt P22001). The source holds these as a separate data set.

Where two headings read alike, the source gives them in different places. Ends that are not written are not given here.

Chain of human Kv1.3 voltage-gated potassium channel (human) (P22001 whole entry): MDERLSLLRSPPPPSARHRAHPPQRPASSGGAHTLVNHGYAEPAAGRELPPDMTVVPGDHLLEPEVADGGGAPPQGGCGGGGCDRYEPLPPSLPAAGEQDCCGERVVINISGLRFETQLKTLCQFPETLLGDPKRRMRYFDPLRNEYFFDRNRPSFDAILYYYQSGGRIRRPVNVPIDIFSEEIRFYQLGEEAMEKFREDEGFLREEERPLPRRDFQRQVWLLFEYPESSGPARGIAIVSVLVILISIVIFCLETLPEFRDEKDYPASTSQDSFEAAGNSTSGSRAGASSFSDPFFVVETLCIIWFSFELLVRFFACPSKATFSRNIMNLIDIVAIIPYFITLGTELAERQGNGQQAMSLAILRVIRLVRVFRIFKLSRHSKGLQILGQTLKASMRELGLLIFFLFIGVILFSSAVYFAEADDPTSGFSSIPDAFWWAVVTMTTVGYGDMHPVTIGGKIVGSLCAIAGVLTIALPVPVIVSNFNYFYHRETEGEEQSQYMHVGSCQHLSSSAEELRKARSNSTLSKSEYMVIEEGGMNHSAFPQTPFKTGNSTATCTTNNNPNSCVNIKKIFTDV
Chain of human Kv1.3 channel (human) (P22001 whole entry): as above
Chain of human Kv1.1 channel (human) (Q09470 whole entry): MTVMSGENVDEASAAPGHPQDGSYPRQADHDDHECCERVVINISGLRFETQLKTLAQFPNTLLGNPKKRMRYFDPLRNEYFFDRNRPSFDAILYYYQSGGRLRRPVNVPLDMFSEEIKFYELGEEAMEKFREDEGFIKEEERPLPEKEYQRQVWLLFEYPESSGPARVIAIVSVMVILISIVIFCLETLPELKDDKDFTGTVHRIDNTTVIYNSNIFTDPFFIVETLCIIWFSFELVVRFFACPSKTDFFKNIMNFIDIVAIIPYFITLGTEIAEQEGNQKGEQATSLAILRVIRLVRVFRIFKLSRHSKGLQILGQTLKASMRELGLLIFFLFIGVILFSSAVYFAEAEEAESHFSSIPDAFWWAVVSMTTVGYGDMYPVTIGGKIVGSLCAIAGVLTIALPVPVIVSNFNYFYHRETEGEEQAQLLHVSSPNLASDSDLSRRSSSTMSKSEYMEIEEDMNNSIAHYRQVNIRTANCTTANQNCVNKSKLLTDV

In test [1], “Fc-L10-ShK[2-35] (CHO-derived) (Fc fusion)” registered an IC50 of block of the outward potassium current, whole cell patch clamp of 0.115 nM. In test [2], “OSK1 (native Orthochirus scrobiculosus toxin peptide)” had a Kv1.3 Selectivity (=Kv1.1/Kv.3 IC50) of 5 fold. On to Synthetic OSK1 (peptide), for which the hKv1.1: IC50 [pM], block of K+ current, whole cell patch clamp in test [3] is 160 pM. In test [1], the hKv1.3: IC50 [pM], block of K+ current, whole cell patch clamp turned out to be 39 pM and the selectivity ratio hKv1.1/hKv1.3 (IC50 on hKv1.1 over IC50 on hKv1.3) stood at 4 fold. On to 20k PEG-ShK (peptide), for which, in test [2], the WB/IFNg (IC50, nM), human whole blood assay came to 0.065 nM and the WB/IL-2 (IC50, nM), human whole blood assay was 0.046 nM. Fc-L5-ShK[2-35] (Fc fusion): in test [1], the IC50 of block of the outward potassium current, whole cell patch clamp came out at 0.1 nM. On to OSK1 analogue E16K, K20D (peptide), for which, in test [2], the WB/IFNg (IC50, nM), human whole blood assay stood at 1.32 nM and the WB/IL-2 (IC50, nM), human whole blood assay was found to be 1.58 nM.

Consider synthetic OSK1 toxin peptide, for which the IC50 of block of the outward potassium current, whole cell patch clamp in test [1] was found to be 0.039 nM. In test [2], GGGGS-Osk1 (peptide) returned a WB/IFNg (IC50, nM), human whole blood assay of 2.2 nM and a WB/IL-2 (IC50, nM), human whole blood assay of 1.36 nM.

On to 20k PEG-OSK1[Ala29, 1Nal34] (peptide), for which, in test [2], the WB/IFNg (IC50, nM), human whole blood assay is 0.081 nM and the WB/IL-2 (IC50, nM), human whole blood assay turned out to be 0.049 nM. In test [4], SCIDTIPKSRCTAFQCKHSMKYRLSFCRKTCGTC (not fully specified; ends and bridges not checked) [ShK[2-35] synthetic peptide analog] had an IC50 of block of the outward potassium current, whole cell patch clamp of 0.049 nM.
